Among the data in article PMC3232247 are k cat of GTP hydrolysis by Gαi, single turnover, with RGSZ2 RH and free SUMO1 (4.0 with RH without SUMO1; 2.2 for Gαi alone) values, retold here.

The test has as its target T1, RGSZ2 RH region (RGS box), recombinant, GST-free (murine).
T1 sequence (Q9QZB0 whole entry, looked up): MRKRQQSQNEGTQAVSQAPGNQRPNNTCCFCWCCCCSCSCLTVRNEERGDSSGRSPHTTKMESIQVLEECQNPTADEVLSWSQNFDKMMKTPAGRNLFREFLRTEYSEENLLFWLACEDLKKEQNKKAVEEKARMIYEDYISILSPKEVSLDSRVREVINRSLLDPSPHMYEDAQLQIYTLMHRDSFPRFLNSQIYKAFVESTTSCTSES

Regarding “SUMO1 (Small Ubiquitin-like MOdifier 1) (from UniProt P63165 1-97) (natural protein)”, the k cat of GTP hydrolysis by Gαi, single turnover, with RGSZ2 RH and free SUMO1 (4.0 with RH without SUMO1; 2.2 for Gαi alone) turned out to be 0.0417 s⁻¹.
